Source: patent US20250282885A1 (VST BIO, published 2025)

Key:
[1] = target: T1, human Sdc2 (human, UniProt P34741 19-144, limits assumed); assay: Octet tandem binning; saturating Ab f10 19838-10-I12-A
T1 construct: Antigen of the Octet tandem binning, loaded on biosensors at 100 nM; also called huSdc2; hSdc2

[2] = target: T2, pig Sdc2 (pig, UniProt F1S0L5 19-145); assay: Octet BLI, HIS1K sensor loaded with pigSdc2, antibody as sample; Full R2 0.9799
T2 construct: also called pSdc2

[3] = target: T1, human Sdc2; assay: Octet tandem binning; saturating Ab m6 19838-20H19-AA (marked non-binding ligand)
[4] = target: T1, human Sdc2; assay: Octet tandem binning; saturating Ab m2 19838-8G17-A
[5] = target: T1, human Sdc2; assay: Octet tandem binning; saturating Ab f9 19838-6-E17-A
[6] = target: T1, human Sdc2; assay: Octet tandem binning; saturating Ab f3 19838-6N03-A
[7] = target: T1, human Sdc2; assay: Octet tandem binning; saturating Ab f5 19844-R4M-P3-E06
[8] = target: T1, human Sdc2; assay: Octet tandem binning; saturating Ab f11 19838-20-H19-A
[9] = target: T1, human Sdc2; assay: Octet tandem binning; saturating Ab m7 19844-R3-P1-E07

T1 sequence (P34741 19-144 limits assumed): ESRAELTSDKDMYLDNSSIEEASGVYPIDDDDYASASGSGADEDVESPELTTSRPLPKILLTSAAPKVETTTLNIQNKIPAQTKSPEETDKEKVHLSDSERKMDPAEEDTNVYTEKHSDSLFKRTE

raw competing-Ab binding signal [1]: 0.152 | Kd [2]: 15 nM | koff [2]: 0.0419 s⁻¹ | kon [2]: 2.8e+06 M⁻¹ s⁻¹ | raw competing-Ab binding signal [3]: 0.165 | raw competing-Ab binding signal [4]: 0.103 | raw competing-Ab binding signal [5]: 0.115 | raw competing-Ab binding signal [6]: 0.106 | raw competing-Ab binding signal [7]: 0.0642 | raw competing-Ab binding signal [8]: 0.165 | raw competing-Ab binding signal [9]: 0.132
B1: R4M-P3-A12 (antibody, human IgG1, kappa, V domains shown)
VH: EVQLVESGGGVVQPGGSLRLSCAASGFTFSDHYMSWIRQAPGKGLEWVSYLSGSGTSIYYADSVKGRFTISRDNAKKSLYLQMNSLRAEDTAVYYCARVGPAAGNAFDIWGQGTMVTVSS
VL: QSVLTQPPSASGTPGQRVTISCSGSSSNIGSNYVYWYQQLPGTAPKLLIYRNNQRPSGVPDRFSGSKSGTSASLAITGLQAEDEADYYCQSYDSSLSGVVFGGGTKLTVLR
